Test results taken from patent publication US20230312654A1.

How the values were obtained:
[1] = biological target: UFV180846 (influenza B virus B/Brisbane/60/08) (UniProt P22092)
[2] = biological target: UFV180131 (influenza B virus B/Brisbane/60/08) (UniProt P22092)
[3] = biological target: UFV180137 (influenza B virus B/Brisbane/60/08) (UniProt P22092)
[4] = biological target: UFV180251 (influenza B virus B/Brisbane/60/08) (UniProt P22092)
[5] = biological target: UFV180284 (influenza B virus B/Brisbane/60/08) (UniProt P22092)

Substance: monoclonal antibody CR8071
- EC50 [1]: < 4.6 nM

Substance: monoclonal antibody CR9114
- EC50 [2]: < 2.6 nM
- EC50 [3]: < 2.6 nM
- EC50 [4]: < 2.6 nM
- EC50 [5]: < 2.6 nM
- EC50 [1]: < 4.6 nM
